The labels stand for the following.
B1: Receptor-type tyrosine-protein phosphatase eta (Homo sapiens), Q12913 (parent)
chain: MKPAAREARLPPRSPGLRWALPLLLLLLRLGQILCAGGTPSPIPDPSVATVATGENGITQISSTAESFHKQNGTGTPQVETNTSEDGESSGANDSLRTPEQGSNGTDGASQKTPSSTGPSPVFDIKAVSISPTNVILTWKSNDTAASEYKYVVKHKMENEKTITVVHQPWCNITGLRPATSYVFSITPGIGNETWGDPRVIKVITEPIPVSDLRVALTGVRKAALSWSNGNGTASCRVLLESIGSHEELTQDSRLQVNISGLKPGVQYNINPYLLQSNKTKGDPLGTEGGLDASNTERSRAGSPTAPVHDESLVGPVDPSSGQQSRDTEVLLVGLEPGTRYNATVYSQAANGTEGQPQAIEFRTNAIQVFDVTAVNISATSLTLIWKVSDNESSSNYTYKIHVAGETDSSNLNVSEPRAVIPGLRSSTFYNITVCPVLGDIEGTPGFLQVHTPPVPVSDFRVTVVSTTEIGLAWSSHDAESFQMHITQEGAGNSRVEITTNQSIIIGGLFPGTKYCFEIVPKGPNGTEGASRTVCNRTVPSAVFDIHVVYVTTTEMWLDWKSPDGASEYVYHLVIESKHGSNHTSTYDKAITLQGLIPGTLYNITISPEVDHVWGDPNSTAQYTRPSNVSNIDVSTNTTAATLSWQNFDDASPTYSYCLLIEKAGNSSNATQVVTDIGITDATVTELIPGSSYTVEIFAQVGDGIKSLEPGRKSFCTDPASMASFDCEVVPKEPALVLKWTCPPGANAGFELEVSSGAWNNATHLESCSSENGTEYRTEVTYLNFSTSYNISITTVSCGKMAAPTRNTCTTGITDPPPPDGSPNITSVSHNSVKVKFSGFEASHGPIKAYAVILTTGEAGHPSADVLKYTYEDFKKGASDTYVTYLIRTEEKGRSQSLSEVLKYEIDVGNESTTLGYYNGKLEPLGSYRACVAGFTNITFHPQNKGLIDGAESYVSFSRYSDAVSLPQDPGVICGAVFGCIFGALVIVTVGGFIFWRKKRKDAKNNEVSFSQIKPKKSKLIRVENFEAYFKKQQADSNCGFAEEYEDLKLVGISQPKYAAELAENRGKNRYNNVLPYDISRVKLSVQTHSTDDYINANYMPGYHSKKDFIATQGPLPNTLKDFWRMVWEKNVYAIIMLTKCVEQGRTKCEEYWPSKQAQDYGDITVAMTSEIVLPEWTIRDFTVKNIQTSESHPLRQFHFTSWPDHGVPDTTDLLINFRYLVRDYMKQSPPESPILVHCSAGVGRTGTFIAIDRLIYQIENENTVDVYGIVYDLRMHRPLMVQTEDQYVFLNQCVLDIVRSQKDSKVDLIYQNTTAMTIYENLAPVTTFGKTNGYIA

The variants in this assay derive from B1. To be noted: with flt3_human FLT3, P36888.
Sequence of flt3_human FLT3, P36888 (P36888 whole entry): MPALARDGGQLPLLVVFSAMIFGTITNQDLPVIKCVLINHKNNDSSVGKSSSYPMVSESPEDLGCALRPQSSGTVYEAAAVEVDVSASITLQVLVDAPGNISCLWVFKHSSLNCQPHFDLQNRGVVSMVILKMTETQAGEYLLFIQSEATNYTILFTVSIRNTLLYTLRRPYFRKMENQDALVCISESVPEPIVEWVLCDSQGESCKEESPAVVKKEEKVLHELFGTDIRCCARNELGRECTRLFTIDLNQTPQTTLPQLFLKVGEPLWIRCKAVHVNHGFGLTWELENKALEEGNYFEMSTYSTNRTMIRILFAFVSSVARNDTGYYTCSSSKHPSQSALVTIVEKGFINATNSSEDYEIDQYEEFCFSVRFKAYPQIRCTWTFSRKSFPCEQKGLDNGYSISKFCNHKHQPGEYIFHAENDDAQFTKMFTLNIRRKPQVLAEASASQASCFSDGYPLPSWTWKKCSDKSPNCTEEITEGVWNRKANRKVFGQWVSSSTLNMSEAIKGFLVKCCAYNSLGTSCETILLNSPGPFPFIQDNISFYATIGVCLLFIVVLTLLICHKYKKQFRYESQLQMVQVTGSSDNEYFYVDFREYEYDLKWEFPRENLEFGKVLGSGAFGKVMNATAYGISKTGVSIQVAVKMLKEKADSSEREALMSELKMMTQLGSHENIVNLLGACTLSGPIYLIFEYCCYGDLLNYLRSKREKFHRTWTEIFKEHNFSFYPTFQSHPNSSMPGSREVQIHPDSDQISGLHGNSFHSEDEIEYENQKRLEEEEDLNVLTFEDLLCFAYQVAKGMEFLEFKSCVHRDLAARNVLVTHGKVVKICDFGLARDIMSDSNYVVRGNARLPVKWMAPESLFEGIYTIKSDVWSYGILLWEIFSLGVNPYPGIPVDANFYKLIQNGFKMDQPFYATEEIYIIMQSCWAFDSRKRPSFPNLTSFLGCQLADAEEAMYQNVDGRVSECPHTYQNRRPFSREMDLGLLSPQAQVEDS
As for C1239S, the “effect of a mutation on the interaction” value is recorded as “increasing interaction strength”.

Values taken from IntAct's records for PubMed 23650535.
